# Biological target: EphB2-KD-GFP (UniProt P54763)
# Assay: co-IP; anti-GFP antibody on ProteinA/G agarose, overnight, pre-cleared lysates of co-transfected HEK293 cells (10mM Tris-Cl pH 8, 137 mM NaCl, 2mM EDTA, 1% NP40); blot for Myc; in the ligand experiments cells were starved 2 hr in OPTIMEM and incubated 15 min at 37°C with pre-clustered Fc, eB2-Fc or eA3-Fc (1.5 μg/ml), Netrin-1 (250 ng/ml) or eB2-Fc+Netrin-1 before lysis
# Chain of EphB2-KD-GFP (P54763 19-986): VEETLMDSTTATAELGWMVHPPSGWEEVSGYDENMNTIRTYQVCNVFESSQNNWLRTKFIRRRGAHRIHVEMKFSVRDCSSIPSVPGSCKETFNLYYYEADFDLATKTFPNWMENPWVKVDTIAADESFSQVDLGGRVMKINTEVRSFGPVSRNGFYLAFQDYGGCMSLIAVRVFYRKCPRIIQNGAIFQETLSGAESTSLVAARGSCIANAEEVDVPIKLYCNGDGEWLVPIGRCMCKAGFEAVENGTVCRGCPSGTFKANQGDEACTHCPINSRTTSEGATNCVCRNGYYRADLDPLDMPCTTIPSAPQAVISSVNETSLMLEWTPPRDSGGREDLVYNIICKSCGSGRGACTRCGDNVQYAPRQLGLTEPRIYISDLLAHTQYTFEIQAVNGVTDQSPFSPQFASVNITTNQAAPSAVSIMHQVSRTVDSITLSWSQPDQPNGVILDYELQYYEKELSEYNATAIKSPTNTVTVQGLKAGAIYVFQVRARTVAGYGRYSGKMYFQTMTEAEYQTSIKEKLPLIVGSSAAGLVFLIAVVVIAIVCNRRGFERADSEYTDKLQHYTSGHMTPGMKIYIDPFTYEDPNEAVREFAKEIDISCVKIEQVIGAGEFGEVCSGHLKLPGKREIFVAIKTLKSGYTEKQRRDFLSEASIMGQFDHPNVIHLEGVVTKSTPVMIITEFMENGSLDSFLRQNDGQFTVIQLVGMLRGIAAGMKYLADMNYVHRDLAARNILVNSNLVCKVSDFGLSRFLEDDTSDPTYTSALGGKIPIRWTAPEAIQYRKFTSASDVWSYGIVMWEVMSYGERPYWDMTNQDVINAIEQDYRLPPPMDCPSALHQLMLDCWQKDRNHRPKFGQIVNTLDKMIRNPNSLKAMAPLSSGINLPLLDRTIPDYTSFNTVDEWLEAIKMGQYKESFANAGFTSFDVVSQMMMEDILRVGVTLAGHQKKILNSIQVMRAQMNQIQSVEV
# Chain of Unc5c-Myc (O08747 41-931): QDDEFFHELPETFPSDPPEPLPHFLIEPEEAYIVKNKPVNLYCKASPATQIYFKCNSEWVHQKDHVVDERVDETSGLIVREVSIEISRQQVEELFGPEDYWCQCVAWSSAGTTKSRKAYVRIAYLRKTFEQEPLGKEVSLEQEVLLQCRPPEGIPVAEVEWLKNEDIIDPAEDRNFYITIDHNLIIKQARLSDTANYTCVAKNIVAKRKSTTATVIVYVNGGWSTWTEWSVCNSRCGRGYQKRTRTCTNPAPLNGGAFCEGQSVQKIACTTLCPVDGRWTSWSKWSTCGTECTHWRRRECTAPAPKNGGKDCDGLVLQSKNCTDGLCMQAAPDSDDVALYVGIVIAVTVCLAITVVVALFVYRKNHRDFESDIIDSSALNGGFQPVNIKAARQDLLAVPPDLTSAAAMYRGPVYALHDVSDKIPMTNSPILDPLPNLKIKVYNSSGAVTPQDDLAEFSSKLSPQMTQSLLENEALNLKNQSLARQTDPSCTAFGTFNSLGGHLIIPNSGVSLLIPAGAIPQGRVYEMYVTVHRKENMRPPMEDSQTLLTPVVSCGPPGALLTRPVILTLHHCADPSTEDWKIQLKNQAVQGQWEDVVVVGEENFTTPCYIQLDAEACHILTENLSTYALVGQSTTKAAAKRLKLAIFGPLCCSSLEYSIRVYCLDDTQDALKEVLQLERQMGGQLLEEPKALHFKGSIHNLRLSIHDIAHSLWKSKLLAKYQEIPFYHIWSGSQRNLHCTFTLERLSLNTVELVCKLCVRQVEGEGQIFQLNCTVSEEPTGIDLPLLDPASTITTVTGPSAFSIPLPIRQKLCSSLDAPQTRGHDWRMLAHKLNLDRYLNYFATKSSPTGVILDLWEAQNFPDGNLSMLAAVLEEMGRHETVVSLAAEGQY
substance,measurement,value
Unc5c-Myc (from UniProt O08747 41-931) (receptor),percent reduction of the interaction against wild-type EphB2-GFP,67%

# Reference: PMC4764565
